B1: Mip1-myc (wild type) [S. pombe] / FLAG-tagged Tor2 kinase [S. pombe] (parent complex)
chain 1: MNDRISEVSGSSRARRSVLSYGTTETGSDRYTENSNIATENGVDTASSMIDGIQSGFPQPRHGFEEEYNNAEYINMLEQVFYMYYTDKRHRGVISKKNAEPTETIHDWRMRERLKTVSAALLVCLNIGVDPPDVIKPNPAAKYECWIDPFSLPASKALEAIGKNLQQQYETLSMRTRYRHYLDPAIEEVKKLCIGQRRNAKEERILFHYNGHGVPMPTASGEIWVFNKNYTQYIPVSLYDLQSWLGAPCIYVYDCSAAGNIIVNFNRFAEQRDKEALRIAKQNPNVLAMPSHTSCIQLAACGPKETLPMNPDLPADLFTSCLTSPIEISVRWYVLQNPFPNKLNLNMLLKIPGRLQDRRTPLGELNWIFTAITDTIAWNVFPKHLFRRLFRQDLMVAALFRNFLLAERIMLVHSCHPQSSPELPPTHDHPMWNSWDLAIDNCLSQLPDMLDAESKGIAYEYKHSTFFSEQLTAFEVWLSQGLISRKPPDQLPLVLQVLLSQVHRLRALILLSKFLDLGVWAVDLALSIGIFPYVLKLLQSPAIELKPVLVFIWARILAVDDSCQADLLKDNGYGYFVQILNPNSSIFPSSNISEHRAMCAFILSVFCRGFPQGQLACLNPQVLSHCLSHLNSPDSLLRQWACLCISQLWENYSEAKWSGTRDNAHVKLAEIIVDSVPEVRASVLTAFTTFLGFPEKTEEVVAVETYIAIAALAALSDASPLVRHELVIFLSHFVVNYKKQLMVVAYESSLADILEKKNHNSISASTIYETVWQAVLVLAADPSIEISLAAEAIINYVYQSMLNSELRESFLAFLLQHLPALHKASLSKDTDTNSVTSDPKPHPFVPSVSENKILNRSFSLTRSLKGLALSLAGSDRASELLSLNGENKPAESNLNHLTSAKVPGPPAFNELEYQSELDMPLTSYLFDWSRKYFTEPQMRPNEDDEPGSICYNQRLWRRNRNEKLIYRTRPLAEYSTNGRWNQQLMTFNNTIAPRKLMFHQFEDQLITLGDKDIIQVWDWRRNRCLNSFKTSASATTNVTDMQLLNEDDVALLMTGSSDGTIKLYRDYENEKVELVTSWNSLSDLVFGDRNASLLMSWQQNCGHLLVAGDVRVIRIWDASKEICYANLPVRSSNSITSLTSDLVGCNIIVAGFSDGVLRVYDKRLPARDSLTDVWKEHSSEIVNVEMQSSGMRELISASSDGEVKLWDIRMNHSLQTFSTDNSGLTSLTVHSHAPVYATGSSNQSIKIWDTLGQNINTFRENPRFLNQPKPSSLMCLKFHPHHLLLACGDNTDSRVNLYSCTKNEIHTDSPNEF
chain 2: MKEFPGLKSRNEEIRNKAANDLYEYVIAYSRELSGEALVQFNNDVNKYVYTLIHSTDPLDRLAGVTAINRLIDYEGEDTTRITRFANYLRIILPGTDQKATVLAAKALGRLAVPGGALTSEFVNFEVKRALEWLQGERNENRRYAAVLILKELAKNTSTLIYAHIDSIFELLWHGLRDPKVTIRIASADALSEFLKIVRQRDSSIRLQWYTSILNEAQRGVAQGSSDYIHGSLLVYRQLFLKAGMFMHERYREVSDIILQFRDHKDLLIRKTVTELIATLAAYNPDEFVSNYLHVCMLHLLNLLKKENVKMLAFATIGKVAVAITNSIIPYLDPICDSIKESLKIHIRNKSASDAAIFQCISLLSIALGQAFSNYAYDLFDLIFASGLSEASYRALSDLAHNIPPLLPVIQERLLDMLSKILSGRPFIPPGCPPQYVARSLKSSKSASLKTGFFPNDVYILALKVLGNFDFSGYILNEFVKDCVVVYLENNDPEVRKTASITCSQLFARDPILSQTSDHAIQVVAEVLEKLLTVGICDTVPDIRLTVLNSLDSRFNKHLAQADKIRLLFIAINDENFAVRESALRIIGRLNVYNPAYVMPYLRKIMLKTLTILDYSTIIRTKEENAKLLCLLIAAAPRLIESHVEPILQILLPKAKDSSSIVAASIVNSLGEICQISGEVIVPFIKDLMPLIIEALQDQSSPIRRAAALKALGNLSSSTGYVIDPYIEFPSLLDILIGITKTEQDITIRRETIKLIGTLGALDPNRHRVLEKGTEKVVPEQKNIPPDISLLMSGIGPSSDEYYPTVVITALMSILKDPSLTIHHTAVIQAVMYIFKTMGLRCAPFLSQIIPEFIAVMRTCPTNILEFYFQQLSILVLIVRQHIRSFLPDLFKLIKDFWNPHSNLQFTILSLIESLARAMQGEFKPYLPSLLVMMLQIFDSDVSVDSVSTKKVLHAFIVFGDTLADYFHMLLDPILRLYERNDVSIGIKESIMITIGRLSMVINLSEYASRIIHPVMRMLSCNNASLIRVSMDTVCALIYQLNVDFAIFIPMIDKCLKMNGVTHETYSILVEQFLQEQPLPIKLNPYEKYDKPKLDVVASAADITSKKLPVNQEILRNAWEASQRSTKDDWQEWIRRLGVALLRESPSHALRACAALAAAYQPLARDLFNASFVSCWSELYDHFQEELVKSIEIALTSPHISPEIIQILLNLAEFMEHDDKPLPIDIRTLGAYAAKCHAFAKALHYKELEFIEEELVTKPSVDTIEALISINNQLQQPDAAIGILKHAQQHDKMNLKETWYEKLQRWEDALSAYEKREAAGAGNFEITMGKLRCLHALGEWDRLSQLAQENWIHAGHDARRYIAPLSVAAAWGLGQWEQMDEYISVMKSESPDKAFFNAIVALHRSQFEEAASYITRARDLLDTELTALVGESYNRAYSVAVRVQMLSELEEIITYKKAEDKPEVREMIKKTWVRRLKGCQRNVDVWQRMLRIRSLVISPRDNMEMWIKFANLCRKSGRISLAKKSLNLLLEDDENLDNSLVLKKTHPSIVYANLKFLWAVDDKRKALNSMQEFTSQLISDINVDPALFVQSTSVNTQKSQEEIQYYFHLLARCYHKQGQWQQEIENNWSEGSFDGVLQSYMYATQFDSKWYKAWHSWALANFEAVKFLEQSEEQIPSAAYEQYIIPAVKGFFKSIALSKGNLQDTLRLLNLWFKFGNNSNVINTLNVGISTVNIDIWLDVIPQLIARIHASSLSVRKSVHQLLSDVGRAHPQALVYPLTVAAKSQSSARQNAALAIMDSLKTHSPRLVEQARLVSHELIRAAILWHEQWHEGLEEASRLYFGDHNIEGMFAVLRPLHEMLERGPETLREISFQQAFGRDLVEARDCCIRFEQTGDISDLNQAWDLYYQVFKKIRKQLPQLTTLDLQYVSPKLLHVHDLELAVPGTYVSGKPVIRIVKFYPTFNVITSKQRPRRLSIKGSDGKDYQYVLKGHEDIRQDERVMQLFGLCNNLLLADPETFKRLLSIQRYPVIPLSPDSGLLGWVLDSDTLHVLIRDYRESRKILLNIEHRLIIQMAPDYDRLTLLQKVEVFEYALLSTTGQDLYRVLWLKSRSSEAWLNRRTNYSRTLAVMSMVGYILGLGDRHPSNLMLDRYTGNIIHIDFGDCFEVAMHREKFPEKIPFRLTRMLVNAMEVSGIEGTFRITCEHVMRVLRTNKESVMAVLEAFVYDPLINWRLAPAYSPSIDEKQSNEPNTLLGETIDGLHRKRLNEEGITLEERQKPEILNQRAITVLNRVSNKLTGRDFKPQQQLDVPSQVEKLILQATSIENLCLCYIGWCSFW

Variants of: B1
Assay: co-immunoprecipitation (anti-FLAG affinity beads) with quantified immunoblot; n=3 independent experiments; parent: 1; read off a plot

Row | Variant | ratio to parent
1 | chain 1 R358A | ~0.42
2 | chain 1 Y533A | ~0.9
3 | chain 1 R504A | ~0.53
